Assay [1] concerns the target wild-type human IL-21R (human) (UniProt Q9HBE5). Put plainly: AlphaSeq yeast mating assay, pH 6 media.
Assay [2] has the same target. Put plainly: AlphaSeq yeast mating assay, pH 7 media.
Assay [3] addresses recombinant human IL-21R His tag (Acro Biosystems) (human) (UniProt Q9HBE5). In words: BLI. On the technique in general: In BLI a coated tip is dipped into the sample, and binding shifts an interference pattern.
The target in assay [4] is mouse IL-21R, His-tagged (BLI antigen) (mouse) (UniProt Q9JHX3). In words: BLI.
The target in assay [5] is wild-type human IL-21R (human) (UniProt Q9HBE5). Put plainly: AlphaSeq yeast mating assay, unbuffered media.
The target is the same in assay [6]. Put plainly: AlphaSeq yeast mating assay, pH 5 media.
Assay [7] addresses human interleukin 21 receptor (IL-21R) (human) (UniProt Q9HBE5). Put plainly: AlphaSeq yeast mating assay, pH 6 media.
Assay [8] shares this target. In words: AlphaSeq yeast mating assay, unbuffered media.
For assay [9] the target is unchanged. Put plainly: AlphaSeq yeast mating assay, pH 7 media.
Assay [10] has the same target. In words: AlphaSeq yeast mating assay, pH 5 media.

In the case of “IL-21_P133I (from UniProt Q9HBE4 32-152) (ligand)”, the results for the Kd in assay [1] and in assay [2] were 0.044 µM and 0.11 µM, respectively.

Take “IL-21_human_I45A Fc fusion protein (from UniProt Q9HBE4 30-162)”: the Kd (usually the constant that tells how readily two partners part at equilibrium) in [3] amounted to 0.00194 µM; in assay [4], 0.0126 µM.

In the case of “IL-21_N54P (from UniProt Q9HBE4 32-152) (ligand)”, the Kd came to 0.02 µM in [1], 5.4 µM in assay [5], 0.027 µM in assay [2] and 0.089 µM in assay [6].

As for “IL-21_L56M (from UniProt Q9HBE4 32-152) (ligand)”, the equilibrium dissociation constant (Kd) in assay [1] stood at 0.045 µM; in assay [5], 6.7 µM; in assay [2], 0.084 µM; in assay [6] it was 0.35 µM.

As for “IL-21_R114F (from UniProt Q9HBE4 32-152) (ligand)”, the Kd in [7] came to 0.048 µM; in assay [8], 0.45 µM; in [9], 0.057 µM; in assay [10], 0.14 µM.

Take “IL-21_human_I37R Fc fusion protein (from UniProt Q9HBE4 30-162)”: the Kd in assay [4] came out at 0.0351 µM.

The substance “IL-21_L120Y (from UniProt Q9HBE4 32-152) (ligand)” displayed a dissociation constant Kd in assay [9] of 0.058 µM.

Turning to “IL-21_human_R38M Fc fusion protein (from UniProt Q9HBE4 30-162)”, the Kd in [3] was found to be 0.0879 µM; in assay [4] it was 0.189 µM.

“IL-21_A87N (from UniProt Q9HBE4 32-152) (ligand)”: the Kd in [1] amounted to 0.025 µM; in [2], 0.12 µM; in assay [6], 0.11 µM.

As to “IL-21_H118K (from UniProt Q9HBE4 32-152) (ligand)”, the Kd in [1] stood at 3.1 µM; in assay [2], 0.37 µM; in [6] it was 99 µM.

With “IL-21_E93G (from UniProt Q9HBE4 32-152) (ligand)”, the Kd in [1] is 0.037 µM; in assay [5], 7.2 µM; in assay [2], 0.15 µM.

“IL-21_human_K106S Fc fusion protein (from UniProt Q9HBE4 30-162)”: the Kd is 0.00578 µM in [3] and 0.024 µM in assay [4].

As to “IL-21_human_D33T Fc fusion protein (from UniProt Q9HBE4 30-162)”, the Kd in [3] is 0.0148 µM; in [4], 0.0374 µM.

For “IL-21_N97G (from UniProt Q9HBE4 32-152) (ligand)”, the Kd in assay [1] amounted to 0.024 µM; in assay [5] it was 7.6 µM; in assay [2], 0.048 µM; in [6], 0.077 µM.

Regarding “IL-21_R94T (from UniProt Q9HBE4 32-152) (ligand)”, the Kd in assay [7] was determined as 0.027 µM; in assay [9], 0.08 µM; in assay [10], 0.21 µM.

Take “IL-21_human_I148S Fc fusion protein (from UniProt Q9HBE4 30-162)”: the results for the Kd in assay [3] and in assay [4] were 0.00245 µM and 0.00646 µM, respectively.

Regarding “IL-21_human_R105K Fc fusion protein (from UniProt Q9HBE4 30-162)”, the Kd in assay [3] came to 0.0167 µM; in [4], 0.0413 µM.

For the substance “IL-21_R115P (from UniProt Q9HBE4 32-152) (ligand)”, the results for the Kd in assay [7], in assay [8] and in assay [9] were 0.015 µM, 0.055 µM and 0.057 µM, respectively.

As for “IL-21_N54H (from UniProt Q9HBE4 32-152) (ligand)”, the values for the Kd in assay [1], in [2] and in assay [6] were 0.02 µM, 0.027 µM and 0.077 µM, respectively.

On to “IL-21_K131V (from UniProt Q9HBE4 32-152) (ligand)”, for which, in [10], the Kd was found to be 0.026 µM.

“IL-21_human_I37V Fc fusion protein (from UniProt Q9HBE4 30-162)”: the Kd is 0.00302 µM in assay [3] and 0.00527 µM in [4].

As for “IL-21_E72H (from UniProt Q9HBE4 32-152) (ligand)”, the Kd worked out at 0.011 µM in [1], 3.4 µM in assay [5] and 0.021 µM in assay [2].

Take “IL-21_I96V (from UniProt Q9HBE4 32-152) (ligand)”: the dissociation constant (Kd) stood at 3 µM in assay [5], 0.062 µM in assay [2] and 0.19 µM in [6].

For “IL-21_F60R (from UniProt Q9HBE4 32-152) (ligand)”, the Kd in assay [1] amounted to 0.026 µM; in [2], 0.027 µM; in assay [6], 0.076 µM.

Turning to “IL-21_S74A (from UniProt Q9HBE4 32-152) (ligand)”, the results for the dissociation constant (Kd) in assay [5], in assay [2] and in assay [6] were 4.4 µM, 0.16 µM and 0.14 µM, respectively.

With “IL-21_F76M (from UniProt Q9HBE4 32-152) (ligand)”, the Kd in assay [1] was 0.021 µM; in assay [2] it was 0.075 µM; in assay [6], 0.077 µM.

With “IL-21_H35P (from UniProt Q9HBE4 32-152) (ligand)”, the Kd in [8] was 0.56 µM; in assay [9] it was 0.059 µM; in assay [10], 0.041 µM.

Consider “IL-21_human_R38Q Fc fusion protein (from UniProt Q9HBE4 30-162)”, for which the Kd in [3] stood at 0.0896 µM; in assay [4] it was 0.246 µM.

“IL-21_K106T (from UniProt Q9HBE4 32-152) (ligand)”: the Kd in assay [8] was found to be 0.21 µM; in assay [10], 0.2 µM.

Take “IL-21_R115I (from UniProt Q9HBE4 32-152) (ligand)”: the Kd in [7] turned out to be 0.035 µM; in assay [8], 0.26 µM; in assay [9], 0.05 µM; in assay [10], 0.14 µM.

In turn, “IL-21_S142D (from UniProt Q9HBE4 32-152) (ligand)” showed an equilibrium dissociation constant (Kd) in assay [8] of 0.45 µM.

With “IL-21_P107D (from UniProt Q9HBE4 32-152) (ligand)”, the Kd in assay [8] amounted to 0.19 µM; in assay [10], 0.06 µM.

Turning to “IL-21_R34T (from UniProt Q9HBE4 32-152) (ligand)”, the Kd in assay [7] is 0.026 µM; in assay [8] it was 0.35 µM; in [9] it was 0.14 µM.

“IL-21_human_I37G Fc fusion protein (from UniProt Q9HBE4 30-162)” displayed a Kd in assay [4] of 0.159 µM.

On to “IL-21_K85S (from UniProt Q9HBE4 32-152) (ligand)”, for which the Kd in assay [10] is 0.15 µM.

Take “IL-21_S77M (from UniProt Q9HBE4 32-152) (ligand)”: the Kd in [7] was determined as 0.015 µM; in [9] it was 0.06 µM; in [10] it was 0.04 µM.

For the substance “IL-21_F60I (from UniProt Q9HBE4 32-152) (ligand)”, the Kd in assay [5] turned out to be 7.7 µM; in assay [2], 0.19 µM; in assay [6], 0.34 µM.

On to “IL-21_Q48G (from UniProt Q9HBE4 32-152) (ligand)”, for which the Kd in assay [1] was determined as 0.016 µM; in [5] it was 3.2 µM; in [2], 0.039 µM; in [6], 0.059 µM.

“IL-21_A63T (from UniProt Q9HBE4 32-152) (ligand)”: the Kd in [1] is 0.021 µM; in assay [5], 3.3 µM; in assay [2] it was 0.21 µM.

With “IL-21_R115Q (from UniProt Q9HBE4 32-152) (ligand)”, the Kd in assay [7] came to 0.011 µM; in assay [9], 0.056 µM.

In the case of “IL-21_K106E (from UniProt Q9HBE4 32-152) (ligand)”, the Kd came to 0.12 µM in [8] and 0.55 µM in [9].

With “IL-21_N51E (from UniProt Q9HBE4 32-152) (ligand)”, the Kd in [7] was 0.011 µM; in [8], 0.25 µM; in assay [9] it was 0.14 µM; in assay [10], 0.02 µM.

As to “IL-21_P108L (from UniProt Q9HBE4 32-152) (ligand)”, the Kd in assay [1] was 0.035 µM; in assay [5], 8.1 µM; in assay [2], 0.099 µM; in [6] it was 0.36 µM.

In the case of “IL-21_R34L (from UniProt Q9HBE4 32-152) (ligand)”, the Kd was 0.33 µM in assay [8], 0.077 µM in [9] and 0.1 µM in assay [10].

Take “IL-21_human_E72L Fc fusion protein (from UniProt Q9HBE4 30-162)”: the Kd in [4] worked out at 0.0123 µM.

As to “IL-21_human_I95H Fc fusion protein (from UniProt Q9HBE4 30-162)”, the Kd in [3] came to 0.016 µM; in assay [4], 0.849 µM.

As for “IL-21_human_I43M Fc fusion protein (from UniProt Q9HBE4 30-162)”, the Kd in assay [3] was 0.00702 µM; in assay [4], 0.00904 µM.

As for “IL-21_H118I (from UniProt Q9HBE4 32-152) (ligand)”, the Kd in [8] turned out to be 0.15 µM; in assay [10] it was 0.36 µM.

Regarding “IL-21_R34M (from UniProt Q9HBE4 32-152) (ligand)”, the Kd came out at 0.39 µM in assay [8] and 0.15 µM in assay [10].

In the case of “IL-21_Q41S (from UniProt Q9HBE4 32-152) (ligand)”, the Kd in assay [1] was found to be 0.026 µM; in [5], 3 µM; in assay [2] it was 0.025 µM; in assay [6], 0.14 µM.

With “IL-21_human_I45H Fc fusion protein (from UniProt Q9HBE4 30-162)”, the Kd in assay [3] amounted to 0.029 µM; in [4], 0.124 µM.

Regarding “IL-21_R94S (from UniProt Q9HBE4 32-152) (ligand)”, the Kd in assay [7] amounted to 0.027 µM; in [9], 0.035 µM; in assay [10] it was 0.14 µM.

In the case of “IL-21_P62H (from UniProt Q9HBE4 32-152) (ligand)”, the Kd in assay [1] was 0.021 µM; in assay [5], 5.1 µM; in [2] it was 0.11 µM; in assay [6] it was 0.16 µM.

Source of the values: patent publication US12281147.
